In publication PMC10330758 (DNA repair, 2023):

Molecular target: N-terminally his-tagged human DHX9 (human, UniProt Q08211 1-1270)
Test: pull-down

Sequence of N-terminally his-tagged human DHX9 (Q08211 whole entry): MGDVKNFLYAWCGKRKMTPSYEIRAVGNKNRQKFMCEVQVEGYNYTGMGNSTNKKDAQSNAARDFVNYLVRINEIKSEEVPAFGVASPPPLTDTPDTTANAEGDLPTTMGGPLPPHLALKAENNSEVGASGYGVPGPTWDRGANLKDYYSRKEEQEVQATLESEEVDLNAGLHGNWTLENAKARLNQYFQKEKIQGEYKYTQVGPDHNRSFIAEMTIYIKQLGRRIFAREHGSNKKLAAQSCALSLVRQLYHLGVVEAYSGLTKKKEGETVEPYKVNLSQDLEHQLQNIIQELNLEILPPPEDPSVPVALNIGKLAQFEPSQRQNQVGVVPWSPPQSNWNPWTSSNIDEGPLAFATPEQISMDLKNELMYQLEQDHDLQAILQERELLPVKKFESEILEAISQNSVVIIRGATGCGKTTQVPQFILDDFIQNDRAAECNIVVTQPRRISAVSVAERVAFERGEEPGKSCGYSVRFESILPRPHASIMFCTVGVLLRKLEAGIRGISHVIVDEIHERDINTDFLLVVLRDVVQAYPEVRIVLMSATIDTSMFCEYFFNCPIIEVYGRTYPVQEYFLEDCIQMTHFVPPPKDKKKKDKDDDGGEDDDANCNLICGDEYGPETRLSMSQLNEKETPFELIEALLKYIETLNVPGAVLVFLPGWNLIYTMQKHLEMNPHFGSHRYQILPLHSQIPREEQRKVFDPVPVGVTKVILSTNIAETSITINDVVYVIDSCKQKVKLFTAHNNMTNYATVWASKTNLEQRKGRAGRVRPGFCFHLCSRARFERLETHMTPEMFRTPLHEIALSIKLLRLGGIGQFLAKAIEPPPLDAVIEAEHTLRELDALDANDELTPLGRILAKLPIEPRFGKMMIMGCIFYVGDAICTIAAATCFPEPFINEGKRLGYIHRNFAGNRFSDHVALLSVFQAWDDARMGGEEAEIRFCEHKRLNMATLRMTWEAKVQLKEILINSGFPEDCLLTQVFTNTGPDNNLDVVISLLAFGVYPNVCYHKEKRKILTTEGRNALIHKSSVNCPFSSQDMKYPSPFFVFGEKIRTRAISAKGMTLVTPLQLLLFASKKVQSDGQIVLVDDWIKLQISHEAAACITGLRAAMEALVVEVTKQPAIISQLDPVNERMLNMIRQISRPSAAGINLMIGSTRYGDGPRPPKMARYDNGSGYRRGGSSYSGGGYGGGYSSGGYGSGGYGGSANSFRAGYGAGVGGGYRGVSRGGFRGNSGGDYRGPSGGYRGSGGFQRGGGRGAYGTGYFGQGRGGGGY

B1: Un-tagged p125 subunit of Pol δ (enzyme, human, UniProt P28340 1-1107, looked up)
chain: MDGKRRPGPGPGVPPKRARGGLWDDDDAPRPSQFEEDLALMEEMEAEHRLQEQEEEELQSVLEGVADGQVPPSAIDPRWLRPTPPALDPQTEPLIFQQLEIDHYVGPAQPVPGGPPPSRGSVPVLRAFGVTDEGFSVCCHIHGFAPYFYTPAPPGFGPEHMGDLQRELNLAISRDSRGGRELTGPAVLAVELCSRESMFGYHGHGPSPFLRITVALPRLVAPARRLLEQGIRVAGLGTPSFAPYEANVDFEIRFMVDTDIVGCNWLELPAGKYALRLKEKATQCQLEADVLWSDVVSHPPEGPWQRIAPLRVLSFDIECAGRKGIFPEPERDPVIQICSLGLRWGEPEPFLRLALTLRPCAPILGAKVQSYEKEEDLLQAWSTFIRIMDPDVITGYNIQNFDLPYLISRAQTLKVQTFPFLGRVAGLCSNIRDSSFQSKQTGRRDTKVVSMVGRVQMDMLQVLLREYKLRSYTLNAVSFHFLGEQKEDVQHSIITDLQNGNDQTRRRLAVYCLKDAYLPLRLLERLMVLVNAVEMARVTGVPLSYLLSRGQQVKVVSQLLRQAMHEGLLMPVVKSEGGEDYTGATVIEPLKGYYDVPIATLDFSSLYPSIMMAHNLCYTTLLRPGTAQKLGLTEDQFIRTPTGDEFVKTSVRKGLLPQILENLLSARKRAKAELAKETDPLRRQVLDGRQLALKVSANSVYGFTGAQVGKLPCLEISQSVTGFGRQMIEKTKQLVESKYTVENGYSTSAKVVYGDTDSVMCRFGVSSVAEAMALGREAADWVSGHFPSPIRLEFEKVYFPYLLISKKRYAGLLFSSRPDAHDRMDCKGLEAVRRDNCPLVANLVTASLRRLLIDRDPEGAVAHAQDVISDLLCNRIDISQLVITKELTRAASDYAGKQAHVELAERMRKRDPGSAPSLGDRVPYVIISAAKGVAAYMKSEDPLFVLEHSLPIDTQYYLEQQLAKPLLRIFEPILGEGRAEAVLLRGDHTRCKTVLTGKVGGLLAFAKRRNCCIGCRTVLSHQGAVCEFCQPRESELYQKEVSHLNALEERFSRLWTQCQRCQGSLHEDVICTSRDCPIFYMRKKVRKDLEDQEQLLRRFGPPGPEAW
B1: binds.
